B1: GRIP and coiled-coil domain-containing protein 1 (Homo sapiens), Q96CN9 (parent)
chain: MEKFGMNFGGGPSKKDLLETIETQKKQLLQYQARLKDVVRAYKSLLKEKEALEASIKVLSVSHEADVGLAGVQLPGLTFPDSVDDRCSTHSEDSTGTATSLDTAASLTSTKGEFGVEDDRPARGPPPPKSEEASWSESGVSSSSGDGPFAGGEVDKRLHQLKTQLATLTSSLATVTQEKSRMEASYLADKKKMKQDLEDASNKAEEERARLEGELKGLQEQIAETKARLITQQHDRAQEQSDHALMLRELQKLLQEERTQRQDLELRLEETREALAGRAYAAEQMEGFELQTKQLTREVEELKSELQAIRDEKNQPDPRLQELQEEAARLKSHFQAQLQQEMRKTALAEDQLRQQSQVEEQRVAALENQISEVSELLGTYEKAKQKDQLAIQKLKERILQLDLENKTLALAASSRSPLDSHGEESSLDVNVLKDKMEKLKRLLQVAARKSQVTLDVEKLCDLEIMPSSEAADGEKATALYYQQELKQLKEEFERYKMRAQVVLKSKNTKDGNLGKELEAAQEQLAELKEKYISLRLSCEELEHQHQQEADDWKQELARLQQLHRQELERCQLDFRDRTLKLEEELHKQRDRALAVLTEKDLELEQLRSVALASGLPGRRSPVGGGGPGDPADTSSSDSLTQALQLAAANEPTFFLYAEQLARKEVEITSLRKQKHRLEVEVHQLQDRLLEEGERHREEVAALQSHIEKNIRDQSREGANLEYLKNIIYRFLTLPDSLGRQQTLTAILTILHFSPEEKQVIMRLPTSASWWPSGKR
B2: STAM-binding protein (Homo sapiens), O95630 (parent)
chain: MSDHGDVSLPPEDRVRALSQLGSAVEVNEDIPPRRYFRSGVEIIRMASIYSEEGNIEHAFILYNKYITLFIEKLPKHRDYKSAVIPEKKDTVKKLKEIAFPKAEELKAELLKRYTKEYTEYNEEKKKEAEELARNMAIQQELEKEKQRVAQQKQQQLEQEQFHAFEEMIRNQELEKERLKIVQEFGKVDPGLGGPLVPDLEKPSLDVFPTLTVSSIQPSDCHTTVRPAKPPVVDRSLKPGALSNSESIPTIDGLRHVVVPGRLCPQFLQLASANTARGVETCGILCGKLMRNEFTITHVLIPKQSAGSDYCNTENEEELFLIQDQQGLITLGWIHTHPTQTAFLSSVDLHTHCSYQMMLPESVAIVCSPKFQETGFFKLTDHGLEEISSCRQKGFHPHSKDPPLFCSCSHVTVVDRAVTITDLR
partner: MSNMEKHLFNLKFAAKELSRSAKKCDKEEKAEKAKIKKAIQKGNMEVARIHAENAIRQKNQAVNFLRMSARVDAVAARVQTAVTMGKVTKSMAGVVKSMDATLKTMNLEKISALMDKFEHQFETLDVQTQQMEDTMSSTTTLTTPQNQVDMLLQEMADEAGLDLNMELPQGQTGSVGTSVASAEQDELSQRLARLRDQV
B3: Coiled-coil domain-containing protein 33 (Homo sapiens), Q8N5R6-5 (parent)
chain: MGEPGPPSPPAPKAAPGLIDSFSEMNNYRRAMQKMAEDILSLRRQASILEGENRILRSRLAQQEEEEGQGKASEAQNTVSMKQKLLLSELDMKKLRDRVQHLQNELIRKNDREKELLLLYQAQQPQAALLKQYQGKLQKMKALEETVRHQEKVIEKMERVLEDRLQDRSKPPPLNRQQGKPYTGFPMLSASGLPLGSMGENLPVELYSVLLAENAKLRTELDKNRHQQAPIILQQQALPVDPGELGAGGDLTERLQETHGPGHSECTETLPAQDLLSGTSDKFNLLAKLEHAQSRILSLESQLEDSARRWGREKQDLATRLQEQEKGFRHPSNSIIIEQPVSDPPGVAPRGSGGGAGSHRTPKVTGP
B4: Coiled-coil domain-containing glutamate-rich protein 1 (Homo sapiens), Q8TC90 (parent)
chain: MTQTLDTREDPLNLGGGGGGGCGCGWAHSASLSSWSSCHRRRPGAPAYNRPHRYSPKTEYGPPRKQPKQQHGPGFWFQPPVCSNWGCWGGPWRPPPPGFWKFPCPVQVFRVYGLHPLCFCCCSCWSGSWNPGWVKPPGRKKRWGRRGRGLRHHPRHSYPRSPPADVSTLPRPVKLYEWREPGMRAPPNTTQFIMNQIYEDMRQQEKVERQQEALRAQKATVSGEASPARSSGNDAPPGGSKETWGLQETLYGFVQNPSLAFSPNPEENQSLAPLLVEEEEEKKNDDEEEYDQEVCDAKEASEEEEEVEDEEEEVEDEEEEEVEEAEYVEEGEEELEEEELEEEEEVLEENEQRGEEFHLPLEMPLSIFVEAEEKRENFISCTFLNPEQIIPKVPQESLFMAQDFNC
B5: Tuftelin-interacting protein 11 (Homo sapiens), Q9UBB9 (parent)
chain: MSLSHLYRDGEGRIDDDDDERENFEITDWDLQNEFNPNRQRHWQTKEEATYGVWAERDSDDERPSFGGKRARDYSAPVNFISAGLKKGAAEEAELEDSDDEEKPVKQDDFPKDFGPRKLKTGGNFKPSQKGFAGGTKSFMDFGSWERHTKGIGQKLLQKMGYVPGRGLGKNAQGIINPIEAKQRKGKGAVGAYGSERTTQSMQDFPVVDSEEEAEEEFQKELSQWRKDPSGSKKKPKYSYKTVEELKAKGRISKKLTAPQKELSQVKVIDMTGREQKVYYSYSQISHKHNVPDDGLPLQSQQLPQSGKEAKAPGFALPELEHNLQLLIDLTEQEIIQNDRQLQYERDMVVNLFHELEKMTEVLDHEERVISNLSKVLEMVEECERRMQPDCSNPLTLDECARIFETLQDKYYEEYRMSDRVDLAVAIVYPLMKEYFKEWDPLKDCTYGTEIISKWKSLLENDQLLSHGGQDLSADAFHRLIWEVWMPFVRNIVTQWQPRNCDPMVDFLDSWVHIIPVWILDNILDQLIFPKLQKEVENWNPLTDTVPIHSWIHPWLPLMQARLEPLYSPIRSKLSSALQKWHPSDSSAKLILQPWKDVFTPGSWEAFMVKNIVPKLGMCLGELVINPHQQHMDAFYWVIDWEGMISVSSLVGLLEKHFFPKWLQVLCSWLSNSPNYEEITKWYLGWKSMFSDQVLAHPSVKDKFNEALDIMNRAVSSNVGAYMQPGARENIAYLTHTERRKDFQYEAMQERREAENMAQRGIGVAASSVPMNFKDLIETKAEEHNIVFMPVIGKRHEGKQLYTFGRIVIYIDRGVVFVQGEKTWVPTSLQSLIDMAK
partner: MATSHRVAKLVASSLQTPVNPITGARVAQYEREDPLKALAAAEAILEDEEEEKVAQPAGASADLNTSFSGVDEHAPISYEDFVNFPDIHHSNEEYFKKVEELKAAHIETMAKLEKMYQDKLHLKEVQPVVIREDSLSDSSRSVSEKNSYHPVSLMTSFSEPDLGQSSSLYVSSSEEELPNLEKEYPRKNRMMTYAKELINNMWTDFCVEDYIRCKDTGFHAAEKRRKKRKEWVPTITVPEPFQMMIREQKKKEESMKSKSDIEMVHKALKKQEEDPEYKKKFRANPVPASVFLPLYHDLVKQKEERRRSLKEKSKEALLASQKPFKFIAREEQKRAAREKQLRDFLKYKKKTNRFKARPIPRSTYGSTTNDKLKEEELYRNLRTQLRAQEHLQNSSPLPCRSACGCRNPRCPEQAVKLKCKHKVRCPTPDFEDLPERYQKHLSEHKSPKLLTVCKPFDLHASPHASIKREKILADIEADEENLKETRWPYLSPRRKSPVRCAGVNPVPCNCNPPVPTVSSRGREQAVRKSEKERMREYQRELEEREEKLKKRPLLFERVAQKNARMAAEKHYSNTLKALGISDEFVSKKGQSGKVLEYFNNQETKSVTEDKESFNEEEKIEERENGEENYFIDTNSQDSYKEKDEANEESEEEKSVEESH

Variants of: B1
Settings: with mcrs1_human MCRS1, Q96EZ8
Chain of mcrs1_human MCRS1, Q96EZ8 (Q96EZ8 whole entry): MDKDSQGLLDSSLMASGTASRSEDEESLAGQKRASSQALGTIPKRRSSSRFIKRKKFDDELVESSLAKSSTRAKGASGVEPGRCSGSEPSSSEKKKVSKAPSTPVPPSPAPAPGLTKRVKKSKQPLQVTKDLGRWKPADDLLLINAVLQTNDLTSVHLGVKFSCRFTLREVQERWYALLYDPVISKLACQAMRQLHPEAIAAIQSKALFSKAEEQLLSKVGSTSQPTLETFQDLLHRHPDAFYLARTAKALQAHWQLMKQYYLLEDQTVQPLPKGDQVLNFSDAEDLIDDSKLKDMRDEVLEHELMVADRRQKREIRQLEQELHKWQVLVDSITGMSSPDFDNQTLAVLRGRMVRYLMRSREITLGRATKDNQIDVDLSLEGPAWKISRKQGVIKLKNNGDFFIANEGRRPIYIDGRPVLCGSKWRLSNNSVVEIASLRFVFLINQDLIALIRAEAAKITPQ
For A274T, the “effect of a mutation on the interaction” value was “with no effect”.

Variants of: B1
Settings: with amol2_human AMOTL2, Q9Y2J4
Chain of amol2_human AMOTL2, Q9Y2J4 (Q9Y2J4 whole entry): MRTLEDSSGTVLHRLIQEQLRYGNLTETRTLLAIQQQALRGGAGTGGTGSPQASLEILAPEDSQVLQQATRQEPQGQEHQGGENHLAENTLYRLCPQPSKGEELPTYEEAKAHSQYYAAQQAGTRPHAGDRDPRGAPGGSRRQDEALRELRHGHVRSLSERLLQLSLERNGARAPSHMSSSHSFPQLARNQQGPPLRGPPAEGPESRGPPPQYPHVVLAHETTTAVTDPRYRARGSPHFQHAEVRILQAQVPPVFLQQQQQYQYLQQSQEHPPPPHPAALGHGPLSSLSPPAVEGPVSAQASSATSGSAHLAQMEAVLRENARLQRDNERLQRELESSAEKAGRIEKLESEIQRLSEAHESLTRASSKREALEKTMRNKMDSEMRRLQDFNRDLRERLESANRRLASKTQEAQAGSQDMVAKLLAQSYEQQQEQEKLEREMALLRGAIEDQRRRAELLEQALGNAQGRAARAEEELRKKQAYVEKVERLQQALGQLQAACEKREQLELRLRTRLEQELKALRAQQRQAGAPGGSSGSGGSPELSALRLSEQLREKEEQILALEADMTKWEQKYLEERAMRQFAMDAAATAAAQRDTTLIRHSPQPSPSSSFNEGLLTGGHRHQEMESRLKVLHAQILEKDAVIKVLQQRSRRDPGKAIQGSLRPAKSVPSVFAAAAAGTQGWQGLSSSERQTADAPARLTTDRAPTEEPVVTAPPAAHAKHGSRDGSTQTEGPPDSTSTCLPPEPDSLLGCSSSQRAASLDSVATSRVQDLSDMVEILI
With A274T the “effect of a mutation on the interaction” value was “with no effect”.

Variants of: B2
Settings: with chm1b_human CHMP1B
With R255H the “effect of a mutation on the interaction” value was “with no effect”.
In the case of Q155H, the “effect of a mutation on the interaction” value is reported as “with no effect”.

Variants of: B3
Settings: with smad3_human SMAD3, P84022
Chain of smad3_human SMAD3, P84022 (P84022 whole entry, looked up): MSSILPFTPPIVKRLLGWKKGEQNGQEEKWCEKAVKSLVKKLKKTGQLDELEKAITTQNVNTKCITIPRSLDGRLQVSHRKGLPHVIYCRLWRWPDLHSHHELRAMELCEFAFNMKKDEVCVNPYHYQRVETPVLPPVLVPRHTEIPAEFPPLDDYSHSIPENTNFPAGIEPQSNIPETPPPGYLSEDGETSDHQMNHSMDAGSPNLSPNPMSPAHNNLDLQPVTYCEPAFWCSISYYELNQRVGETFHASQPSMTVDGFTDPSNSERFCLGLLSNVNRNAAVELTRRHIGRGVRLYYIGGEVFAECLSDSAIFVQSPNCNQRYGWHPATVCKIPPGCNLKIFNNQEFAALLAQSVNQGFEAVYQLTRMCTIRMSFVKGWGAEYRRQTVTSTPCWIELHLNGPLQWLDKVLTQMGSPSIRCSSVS
P203L was tested, and the “effect of a mutation on the interaction” value was “disrupting interaction strength”.
With R30L the “effect of a mutation on the interaction” value was “with no effect”.
With G196R the “effect of a mutation on the interaction” value was “with no effect”.
M25V was tested, and the “effect of a mutation on the interaction” value was “with no effect”.

Variants of: B3
Settings: with aakb2_human PRKAB2, O43741
Chain of aakb2_human PRKAB2, O43741 (O43741 whole entry): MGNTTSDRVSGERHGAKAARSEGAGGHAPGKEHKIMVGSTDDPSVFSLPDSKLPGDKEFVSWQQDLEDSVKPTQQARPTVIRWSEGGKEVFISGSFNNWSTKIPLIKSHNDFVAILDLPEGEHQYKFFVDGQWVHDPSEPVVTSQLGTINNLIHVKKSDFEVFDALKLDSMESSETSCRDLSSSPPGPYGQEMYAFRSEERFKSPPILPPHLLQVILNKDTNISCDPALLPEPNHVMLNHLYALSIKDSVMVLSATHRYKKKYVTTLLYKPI
With P203L the “effect of a mutation on the interaction” value was “with no effect”.
For R30L, the “effect of a mutation on the interaction” value was “with no effect”.
G196R was tested, and the “effect of a mutation on the interaction” value was “with no effect”.
M25V was tested, and the “effect of a mutation on the interaction” value was “with no effect”.

Variants of: B3
Settings: with blk_human BLK
In the case of P203L, the “effect of a mutation on the interaction” value is reported as “with no effect”.
In the case of R30L, the “effect of a mutation on the interaction” value is reported as “with no effect”.
G196R was tested, and the “effect of a mutation on the interaction” value was “with no effect”.
In the case of M25V, the “effect of a mutation on the interaction” value is reported as “with no effect”.

Variants of: B3
Settings: with ptk6_human PTK6, Q13882
For S73N, the “effect of a mutation on the interaction” value was “with no effect”.

Variants of: B3
Settings: with bccip_human BCCIP
S73N was tested, and the “effect of a mutation on the interaction” value was “with no effect”.

Variants of: B4
Settings: with pls1_human PLSCR1, O15162
Chain of pls1_human PLSCR1, O15162 (O15162 whole entry): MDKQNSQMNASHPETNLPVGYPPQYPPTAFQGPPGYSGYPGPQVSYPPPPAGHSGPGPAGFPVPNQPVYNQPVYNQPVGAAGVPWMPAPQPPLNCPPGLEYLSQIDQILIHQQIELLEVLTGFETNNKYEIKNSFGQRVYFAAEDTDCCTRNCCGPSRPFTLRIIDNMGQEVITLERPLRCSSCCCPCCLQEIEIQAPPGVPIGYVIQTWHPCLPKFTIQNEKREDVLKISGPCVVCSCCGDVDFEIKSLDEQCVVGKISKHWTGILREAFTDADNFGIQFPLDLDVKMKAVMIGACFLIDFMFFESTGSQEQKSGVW
With E293K the “effect of a mutation on the interaction” value was “with no effect”.

Variants of: B4
Settings: with nt2na_human NOTCH2NLA
In the case of E293K, the “effect of a mutation on the interaction” value is reported as “with no effect”.

Variants of: B5
Settings: with FAM161A
For S688L, the “effect of a mutation on the interaction” value was “with no effect”.
R8Q was tested, and the “effect of a mutation on the interaction” value was “with no effect”.

From IntAct's records for PubMed 31515488
